Results published in patent US20190315854A1 (BEIJING VDJBIO, published 2019).
Substitutions are numbered along the chain they refer to.

T1: sIL-6R (soluble IL-6 receptor; SBH Sciences) (human, UniProt P08887 20-365)
T1 construct: also called human IL-6R
T1 sequence: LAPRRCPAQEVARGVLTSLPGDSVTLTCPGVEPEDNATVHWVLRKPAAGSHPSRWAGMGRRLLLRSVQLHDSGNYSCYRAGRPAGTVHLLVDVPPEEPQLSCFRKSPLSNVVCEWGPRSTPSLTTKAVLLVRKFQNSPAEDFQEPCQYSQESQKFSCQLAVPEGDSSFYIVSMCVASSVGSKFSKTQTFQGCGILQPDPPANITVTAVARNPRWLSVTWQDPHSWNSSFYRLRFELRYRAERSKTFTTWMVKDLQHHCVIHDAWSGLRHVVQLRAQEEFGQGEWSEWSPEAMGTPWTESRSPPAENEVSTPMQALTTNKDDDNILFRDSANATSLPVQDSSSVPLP

T2: IL-6 receptor on DS-1 cells (ATCC CRL 11102) (UniProt P08887 20-468, limits assumed)
T2 sequence (looked up): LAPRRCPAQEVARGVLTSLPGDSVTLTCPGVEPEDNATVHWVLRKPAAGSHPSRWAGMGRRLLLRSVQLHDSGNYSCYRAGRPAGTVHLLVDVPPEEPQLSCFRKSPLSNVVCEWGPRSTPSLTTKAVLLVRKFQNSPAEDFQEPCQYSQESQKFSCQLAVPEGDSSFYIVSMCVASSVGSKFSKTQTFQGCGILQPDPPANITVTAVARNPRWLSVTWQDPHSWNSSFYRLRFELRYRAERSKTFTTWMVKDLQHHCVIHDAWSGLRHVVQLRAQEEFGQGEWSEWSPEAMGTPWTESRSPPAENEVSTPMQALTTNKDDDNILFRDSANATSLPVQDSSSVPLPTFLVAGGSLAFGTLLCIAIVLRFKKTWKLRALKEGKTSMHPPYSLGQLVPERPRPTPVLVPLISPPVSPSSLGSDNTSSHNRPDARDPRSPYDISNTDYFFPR

B1: 231# (antibody, human IgG1, kappa, V domains shown)
VH: QVQLQESGPGLVRPSQTLSLTCTVSGYSITSDHAWSWVRQPPGRGLEWIGYISYSGITTYNPSLKSRVTMLRDTSKNQFSLRLSSVTAADTAVYYCARTLARMTAIDFWGQGSLVTVSS
VL: DIQMTQSPSSLSASVGDRVTITCRASQDISSYLNWYQQKPGKAPKLLIYYTSRLHSGVPSRFSGSGSGTDFTFTISSLQPEDIATYYCQQGNTLPYTFGQGTKVEIKR
notes: also called Sample # 231
B2: 209# (antibody, human IgG1, kappa, V domains shown)
VH: B1 VH with Y51F, I57M, T99S, M103I
VL: B1 VL
notes: also called Sample # 209
B3: 237# (antibody, human IgG1, kappa, V domains shown)
VH: B1 VH with I57M, T99C, M103T, I106M, F108Y
VL: B1 VL with Q89G, T93R
notes: also called Sample # 237
B4: 248# (antibody, human IgG1, kappa, V domains shown)
VH: B1 VH with I57M, T58I
VL: B1 VL with Q89G, T93R
notes: also called Sample # 248
B5: 249# (antibody, human IgG1, kappa, V domains shown)
VH: B1 VH with I57M, T99C, M103A, I106M, F108Y
VL: B1 VL with Q89G, T93R
B6: 251# (antibody, human IgG1, kappa, V domains shown)
VH: B1 VH with I57M, T58I, T99S, M103I, I106M, F108Y
VL: B1 VL
notes: also called Sample # 251
B7: 250# (antibody, human IgG1, kappa, V domains shown)
VH: B1 VH with I57M, T99S, M103I, I106M, F108Y
VL: B1 VL
notes: also called Sample # 250
B8: 247# (antibody, human IgG1, kappa, V domains shown)
VH: B1 VH with I57M, T99C, I106M, F108Y
VL: B1 VL with Q89G, T93R
notes: also called Sample # 247
B9: 204# (antibody, human IgG1, kappa, V domains shown)
VH: B1 VH with Y51F, I57M, T99C, M103I, I106M, F108Y
VL: B1 VL with Q89G, T93R
B10: 205# (antibody, human IgG1, kappa, V domains shown)
VH: B1 VH with Y51F, I57M, T99C, M103T, I106M, F108Y
VL: B1 VL with Q89G, T93R
B11: 60# (antibody, human IgG1, kappa, V domains shown)
VH: B1 VH with Y51F, I57M, T99S, M103I, I106M, F108Y
VL: B1 VL
notes: also called Sample # 60
B12: 66# (antibody, human IgG1, kappa, V domains shown)
VH: B1 VH with Y51F, I57M, T99S, I106M, F108Y
VL: B1 VL
notes: also called Sample # 66
B13: 62# (antibody, human IgG1, kappa, V domains shown)
VH: B1 VH with Y51F, I57M, T99C, M103A, I106M, F108Y
VL: B1 VL
notes: also called Sample # 62
B14: 64# (antibody, human IgG1, kappa, V domains shown)
VH: B1 VH with Y51F, I57M, T99C, I106M, F108Y
VL: B1 VL
notes: also called Sample # 64
B15: 208# (antibody, human IgG1, kappa, V domains shown)
VH: B1 VH with Y51F, I57M, T99S, M103A, I106M, F108Y
VL: B1 VL
notes: also called Sample # 208
B16: 201# (antibody, human IgG1, kappa, V domains shown)
VH: B1 VH with Y51F, I57M, T99C, M103I
VL: B1 VL
notes: also called Sample # 201
B17: 68# (antibody, human IgG1, kappa, V domains shown)
VH: B1 VH with Y51F, I57M, T99C, M103I, F108Y, W109F
VL: B1 VL
notes: also called Sample # 68
B18: 203# (antibody, human IgG1, kappa, V domains shown)
VH: B1 VH with T99C, I106M, F108Y
VL: B1 VL with Q89G, T93R
notes: also called Sample # 203

biological target: T1, sIL-6R (soluble IL-6 receptor; SBH …); assay: SPR (BIAcore 3000), antibody on chip, sIL-6R analyte, pH 7.4
Method: (§1) All SPR measurements were performed on a BIAcore 3000 instrument (GE Biosciences, Piscataway, N.J.). BIAcore Software-BIAcore 3000 Control Software V3.2 was used for the operation and control of the BIAcore 3000 instrument. BiaEvaluation Software V4.1 was used for the analysis of SPR data from the BIAcore 3000 instrument and data was plotted using Graph Pad Prism Software Version 5. […] The indicated antibodies were used as the ligand for the construction of the reference channel of the chip. […] Each sample was injected for 3 min at a flow rate of 30 μL/min to allow for binding to chip-bound antibody. Next, binding buffer without analyte was sent over the chip at the same flow rate to allow for dissociation of bound analyte. After 500s, remaining bound analyte was removed by injecting regeneration solution (1M Formic acid). Data was analyzed by using the Kinetics Wizard and the manual fitting programs that are both included with the BiaEvaluation Software V4.1.
(§2) SPR measurements at pH 7.4 and pH 6.0 were performed in parallel and KD values calculated according to the protocol as detailed in Example 1. The pH dependence is calculated as the ratio between the KD value at pH 6.0 and the KD value at pH 7.4, which indicates the fold of affinity decrease from the pH7.4 to pH6.0. If the pH dependence of a subject antibody described herein is over 1, it means that the antibody binds to IL-6R in such a pH-dependent manner that its binding to IL-6R at pH7.4 is higher than at pH6.0. If the pH dependence of a subject antibody described herein is lower than 1, it means that the antibody binds to IL-6R in such a pH-dependent manner that its binding to IL-6R at pH6.0 is higher than at pH7.4.

Row | Kd [nM] | koff [s⁻¹] | kon [M⁻¹ s⁻¹] | Binder
1 | 0.00112 | 1.48e-07 | 132000 | B1
2 | 0.000669 | 1.37e-07 | 204000 | B2
3 | 0.0605 | 1.01e-05 | 166000 | B3

biological target: T1, sIL-6R (soluble IL-6 receptor; SBH …); assay: SPR (BIAcore 3000), antibody on chip, sIL-6R analyte, 25 C
Method: as §1

Row | Kd [nM] | Relative Affinity | koff [s⁻¹] | kon [M⁻¹ s⁻¹] | Binder
4 | 0.189 | 14.8 fold vs 25 (Tocilizumab) | 1.73e-05 | 91200 | B4
5 | 0.241 | 11.6 fold vs 25 (Tocilizumab) | 3.39e-05 | 141000 | B5
6 | 0.805 | 3.5 fold vs 25 (Tocilizumab) | 0.00014 | 173000 | B6
7 | 0.354 | 7.9 fold vs 25 (Tocilizumab) | 9.27e-05 | 262000 | B7
8 | 0.212 | 13.2 fold vs 25 (Tocilizumab) | 3.54e-05 | 167000 | B8

biological target: T1, sIL-6R (soluble IL-6 receptor; SBH …); assay: as above; remark: another data set of the same source
Method in brief: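 Antibody immobilized on chip, sIL-6R injected as analyte for 3 min at 30 μL/min, then buffer-only dissociation for 500 s. Surface regenerated with 1M formic acid between cycles. Kinetics obtained by fitting sensorgrams with Kinetics Wizard and manual fitting.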

Row | Kd [nM] | Relative Affinity | koff [s⁻¹] | kon [M⁻¹ s⁻¹] | Binder
9 | 0.00112 | 2820 fold vs 25 (Tocilizumab) | 1.48e-07 | 132000 | B1
10 | 0.000669 | 4720 fold vs 25 (Tocilizumab) | 1.37e-07 | 204000 | B2
11 | 0.0605 | 52.2 fold vs 25 (Tocilizumab) | 1.01e-05 | 166000 | B3

biological target: T2, IL-6 receptor on DS-1 cells (ATCC CRL …); assay: cell-based or functional assay

Row | IC50 (µg/ml), inhibition of DS-1 cell proliferation, MTS assay, IL6 2 ng/mL [µg/mL] | Binder
12 | 0.0362 | B9

biological target: T1, sIL-6R (soluble IL-6 receptor; SBH …); assay: SPR (BIAcore 3000), antibody on chip, sIL-6R analyte, pH 7.4; remark: another data set of the same source
Method: as §1, §2

Row | Kd [nM] | koff [s⁻¹] | kon [M⁻¹ s⁻¹] | Binder
13 | 0.0122 | 2.14e-06 | 175000 | B10

biological target: T1, sIL-6R (soluble IL-6 receptor; SBH …); assay: SPR (BIAcore 3000), antibody on chip, sIL-6R analyte, 25 C; remark: another data set of the same source
Method: as §1

Row | Kd [nM] | Relative Affinity | koff [s⁻¹] | kon [M⁻¹ s⁻¹] | Binder
14 | 0.205 | 13.9 fold vs 25 (Tocilizumab) | 4.59e-05 | 224000 | B11
15 | 0.141 | 20.2 fold vs 25 (Tocilizumab) | 3.38e-05 | 239000 | B12
16 | 0.0258 | 110 fold vs 25 (Tocilizumab) | 6.61e-06 | 256000 | B13
17 | 0.133 | 21.4 fold vs 25 (Tocilizumab) | 2.85e-05 | 214000 | B14
18 | 0.126 | 22.6 fold vs 25 (Tocilizumab) | 2.79e-05 | 221000 | B15
19 | 0.0143 | 199 fold vs 25 (Tocilizumab) | 3.28e-06 | 229000 | B9
20 | 0.0674 | 42.3 fold vs 25 (Tocilizumab) | 1.47e-05 | 218000 | B16
21 | 0.0122 | 234 fold vs 25 (Tocilizumab) | 2.14e-06 | 175000 | B10
22 | 0.0296 | 96.3 fold vs 25 (Tocilizumab) | 8.6e-06 | 291000 | B17
23 | 0.334 | 8.5 fold vs 25 (Tocilizumab) | 3.17e-05 | 95000 | B18

biological target: T1, sIL-6R (soluble IL-6 receptor; SBH …); assay: SPR; ratio of KD at pH 6.0 to KD at pH 7.4
Method: as §1, §2

Row | pH dependence (Fold of affinity decrease) [fold] | Binder
24 | 95.5 | B1
25 | 4.59 | B10
26 | 65.5 | B2
27 | 2.63 | B3

biological target: T1, sIL-6R (soluble IL-6 receptor; SBH …); assay: SPR (BIAcore 3000), antibody on chip, sIL-6R analyte, pH 6.0
Method: as §1, §2

Row | Kd [nM] | koff [s⁻¹] | kon [M⁻¹ s⁻¹] | Binder
28 | 0.056 | 2.15e-05 | 384000 | B10

biological target: T1, sIL-6R (soluble IL-6 receptor; SBH …); assay: as above; remark: another data set of the same source
Method: as §1, §2

Row | Kd [nM] | koff [s⁻¹] | kon [M⁻¹ s⁻¹] | Binder
29 | 0.107 | 3.1e-05 | 291000 | B1
30 | 0.0438 | 2.99e-05 | 683000 | B2
31 | 0.159 | 4.62e-05 | 292000 | B3
